From patent US20240036027A1 come the findings set out here.

For assay [1], the target named is OmpG^Q224-FLAG (Escherichia coli) (UniProt P76045). Description: single-channel current recording, 30 nM antibody, 50 mV, 30 pA pores.
In assay [2] the target is OmpG^L3-FLAG (Escherichia coli) (UniProt P76045). Description: single-channel current recording, N=3 pores, n=9 binding events.
Assay [3] deals with OmpG^Q224-FLAG (Escherichia coli) (UniProt P76045). Description: single-channel current recording, 30 nM FG4R.

Take “FLAG tag monoclonal antibody OTI4C5 (OriGene Technologies)”: the reduction in current in the bound state in assay [1] came out at 20 pA.

In turn, “Monoclonal mouse anti-FLAG antibody FG4R [RRID AB_1957945]” gave a reduction in pore conductance in the bound state in assay [2] of 5.02%. Besides, the reduction of current flow in the bound state in assay [3] was found to be 10%.
